± gives the standard deviation.
Assay: protein stability index of a GFP-peptide fusion (GPS, HEK-293T) (PSI 1-6); higher = more stable
[1] = treatment: DMSO, c terminus: a fixed tail appended
[2] = treatment: MLN4924 1 uM, 8 h, c terminus: a fixed tail appended
[3] = treatment: DMSO, c terminus: native
[4] = treatment: MLN4924 1 uM, 8 h, c terminus: native
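Note: 24-mer peptide tiles fused after GFP, lentivirally expressed, FACS-sorted into six equal bins by GFP/DsRed ratio, decoded by Illumina sequencing, PSI is the read-weighted mean bin number.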

Sequence	protein stability index [1]	protein stability index [2]	protein stability index [3]	protein stability index [4]
GANINAFDKKDRRALHWAAYMGHL [ANKRD44]	2.3 ± 0.21	2.36 ± 0.31	–	–
PALDWDSVHVPGPHAMTIQELVDY [PTPN9]	4.08 ± 0.2	4.31 ± 0.15	–	–
RIHERLVAGSLAGAIAQSSIYPME [SLC25A25]	2.74 ± 0.52	2.56 ± 0.27	–	–
GSEVVPVISPMYQLHKPLAEGTPR [IKZF1]	3.56 ± 0.16	4.21 ± 0.49	–	–
YAGNLHESGVHGALLALDENFDHN [PPFIA4]	3.26 ± 0.51	3.7 ± 0.73	–	–
IFSFLPAPDRLRASASCSHWRECL [FBXO33]	2.41 ± 0.28	2.07 ± 0.38	–	–
RSLQDLARIAIRGTIKKIIHQETV [PCMTD2]	2.39 ± 0.32	2.52 ± 0.65	–	–
VGQSLRIKEQEVCKLQEQLEATVK [SASS6]	4.15 ± 0.44	4.26 ± 0.19	–	–
EPGAGLGIGDMAFEGDMGAAGGDG [PSD2]	5.72 ± 0.23	5.61 ± 0.41	–	–
LVELSAENEKLHQRVEQLTRDLAG [CEBPD]	3.64 ± 0.61	3.73 ± 0.28	–	–
GNPEPVSYYIIQHKPKNSEELYKE [PTPRD]	3.77 ± 0.34	3.47 ± 0.54	–	–
LSTSSSPSGTPTNLRRHVPDLESG [DLC1]	4.65 ± 0.26	4.7 ± 0.21	–	–
PYVCHAELNAIMNKNSTDVKGCSM [DCTD]	3.41 ± 0.22	3.43 ± 0.33	–	–
DDHSVRVAREDVRESCPPLGLETL [CPXM2]	4.85 ± 0.37	4.92 ± 0.18	–	–
TDLKTLCCEFLEGCIAAENCIGIR [GAN]	2.35 ± 0.4	2.48 ± 0.2	–	–
LYSMECAFHPLFSLTSGACRLDYR [TCF25]	2.25 ± 0.72	2.38 ± 0.71	–	–
EEKQASLWVQGDIFRSKLKNRPSS [CDC14A]	3.89 ± 0.049	4 ± 0.25	–	–
ASSPYISSVQSYPGSASLAQSRLE [DLX1]	3.92 ± 0.18	4.13 ± 0.14	–	–
KSFSMANGLNARMMHGGSYSLTTS [RAB40B]	3.1 ± 0.2	3.18 ± 0.2	–	–
SDDSDEDEPCAISGKWTFQRDSKR [DLC1]	5 ± 0.13	4.83 ± 0.069	–	–
KLNKPPETLITTIDSSSSWWTNWV [CYB5A]	2.64 ± 0.23	2.47 ± 0.35	–	–
GGYGSSFGGVDGLLAGGEKATMQN [KRT17]	4.06 ± 0.12	4.395 ± 0.027	–	–
MDLKTAVFNAARDGKLRLLTKLLA [FEM1C]	2.17 ± 0.2	2.3 ± 0.32	–	–

Sequence	protein stability index [1]	protein stability index [2]	protein stability index [3]	protein stability index [4]
VHRDLKPENLLLASKSKGAAVKLA [CAMK2D]	3.58 ± 0.77	3.42 ± 0.065	–	–
ERLQLEYVDVVFANRPDPNTPMEE [KCNAB2]	4.7 ± 0.23	4.75 ± 0.33	–	–
RTVGFEEQASAFQEQEIDGKSLLL [SAMD13]	4.55 ± 0.2	4.85 ± 0.18	–	–
RIFDIKDGKLLWEQELYNNFVYNS [WASL]	2.15 ± 0.67	2.13 ± 0.62	–	–
TDLAQQQGGGNGQQQQAMSFAILR [KCNA4]	3.96 ± 0.1	3.81 ± 0.35	–	–
MAKFGVHRILLLAISLTKCLESTK [MIA2]	3.27 ± 0.52	3.06 ± 0.8	–	–
RDLAARWKKLVLVDRNTRPGPQDP [ELOA2]	3.38 ± 0.19	3.49 ± 0.23	–	–
TFDHEHHTTIVATRHYRPPEVILE [CLK3]	3.34 ± 0.19	3.29 ± 0.17	–	–
NHSLARHADILAAVETRLSLLNMT [FBXO28]	2.53 ± 0.13	2.71 ± 0.19	–	–
GWYRPPFSRVVHLYRNGKDQDGDQ [MOG]	3.67 ± 0.34	3.73 ± 0.26	–	–
GLKLIQIQDNGTGIRKEDLDIVCE [MLH1]	3.56 ± 0.37	3.87 ± 0.75	–	–
VSNTRLIAAATSVLKTRFSYAFPK [CCNC]	2.24 ± 0.44	1.96 ± 0.34	–	–
RAVVEAVHRLDLILCNKTAYQEVF [SMG5]	2.92 ± 0.43	2.92 ± 0.85	–	–
KAFREEMKIFREKIEDFREEMWTF [CCDC70]	2.35 ± 0.2	2.03 ± 0.54	–	–
FLRGPSGPRFGPRNDKIKHVQNQV [VAMP4]	2.93 ± 0.27	3.39 ± 0.31	–	–
NITRIYNIGKSHQGLKLYAVEISD [CPXM2]	2.34 ± 0.43	2.31 ± 0.14	–	–
VVLCFSIANPNSLHHVKTMWYPEI [RHOBTB2]	3.23 ± 0.42	3.16 ± 0.21	–	–
DKAVEIEELTYIIKQDINSLNKQI [STX5]	2.91 ± 0.14	3.12 ± 0.56	–	–
EITEELPSSQLMPVKKQLQGASWE [ZNF396]	4.09 ± 0.14	4.38 ± 0.22	–	–
TVLKQIAPEYFEKNEPYLEAACND [DENND6A]	3.09 ± 0.05	3.26 ± 0.43	–	–
DAQLLPHHSLQAHFRPRFHPLPTV [TMEM192]	3.22 ± 0.18	3.22 ± 0.16	–	–
TVTSLKTKVGGTNPNGGSFEEVLS [TPD52L1]	3.811 ± 0.036	3.82 ± 0.18	–	–
HVAVEHQLPPASRCVLVFEQVRFL [SOAT2]	2.66 ± 0.86	2.36 ± 0.61	–	–

Sequence	protein stability index [1]	protein stability index [2]	protein stability index [3]	protein stability index [4]
LPVNSPMNKGDTEVMKCIVEVISD [CHGA]	3.22 ± 0.2	3.27 ± 0.19	–	–
RRFIQSCPIIRIPNRFLRGHRPPP [KLHDC10]	2.67 ± 0.18	2.73 ± 0.43	–	–
LRHKDEEEEDDDDIHITARIESDL [DRICH1]	5.41 ± 0.12	5.37 ± 0.18	–	–
EAGIKVHDVRLNGSAAGHVLVKDN [TENT5C]	4.42 ± 0.17	4.61 ± 0.15	–	–
GPADCSPPHPAPAPQHPAASALRT [DYRK1B]	4.81 ± 0.24	4.92 ± 0.15	–	–
DRVLQWERIDCQGIPPSSKDKLGV [KLHDC2]	4.14 ± 0.36	3.99 ± 0.07	–	–
KMRMGGRVDFEEFVELIGPKLREE [CABP4]	3.62 ± 0.11	3.31 ± 0.12	–	–
HGNEVLGRELLLLLVQFVCQEYLA [CPXM2]	3.11 ± 1.1	2.98 ± 1.2	–	–
FLSDVTAAVKENQMTPTNLAVCLA [DLC1]	2.72 ± 0.23	2.92 ± 0.29	–	–
AQNACSEHGATLAVIDSEKDMNFL [CD69]	4.62 ± 0.29	4.78 ± 0.27	–	–
REAEKQNYLAEHCPPLHIPGSMSE [TNNI2]	4.67 ± 0.25	4.72 ± 0.31	–	–
DGTGRMPTLKKCEDVARPTQRLWD [GALNT9]	4.01 ± 0.31	4.13 ± 0.19	–	–
TSCLKKREEMKLKECVSILPRKES [TNFSF13B]	4.42 ± 0.15	4.5 ± 0.15	–	–
EEEEAEDEEVVATAGDRLTEFRKG [IRX6]	5.48 ± 0.34	5.6 ± 0.28	–	–
FIGLEVVAQLFNCMVGLLLIALLT [ATL3]	3.08 ± 0.3	3.39 ± 0.28	–	–
ESFILDQDDLENPMLETASKLLLS [ANKRD17]	3.99 ± 0.22	4.1 ± 0.38	–	–
LNRATQSIERSHRIATETDQIGSE [VTI1B]	5.44 ± 0.32	5.34 ± 0.11	–	–
RPGVQDAALIEAIQDRLSNTLQTY [VDR]	2.78 ± 0.3	3.09 ± 0.28	–	–
WTNRLCHQEMGSKKTVTQEDRGW [SPAG8]	–	–	3.08 ± 0.64	2.79 ± 0.41
GKDSRWLPSLVLARLVFVPLLLLC [SLC29A1]	2.68 ± 0.78	2.48 ± 0.45	–	–
KTKWTKEDGHRTSTSAVPNLFVPL [ADD1]	3.27 ± 0.26	3.22 ± 0.28	–	–
LLSQKKTISFLGCAIQMFSFLFLG [OR10K2]	2.5 ± 0.69	2.41 ± 0.25	–	–
VMLKRIHSLYRRTGASFQKAQQEF [SCAMP3]	2.49 ± 0.35	2.68 ± 0.46	–	–

Sequence	protein stability index [1]	protein stability index [2]	protein stability index [3]	protein stability index [4]
FHLAPARAGHHPNQYATCRLCGRQ [ZBED2]	2.58 ± 0.41	3.14 ± 0.68	–	–
SFVCWSRGFMEMNGRGELVESLKR [AUP1]	2.36 ± 0.51	2.2 ± 0.27	–	–
GKEFGYFPRDAVQIEEVFISEEIQ [MIA2]	3.88 ± 0.42	3.77 ± 0.45	–	–
TIPATLLVDHVGSKTFLCIGSSVM [SLC2A12]	2.69 ± 0.5	2.34 ± 0.44	–	–
LETEIEALKEELLFMKKNHEEEVK [KRT18]	5.1 ± 0.12	4.98 ± 0.098	–	–
TLAVTCQLPIDRGGGEGKAMYIDT [RAD51]	3.14 ± 0.25	3.33 ± 0.32	–	–
GEAGWGAGEGRLGHKRKQPLPKRV [FOXJ1]	4.5 ± 0.16	4.59 ± 0.26	–	–
SARIGQNCSIGPNVSLGPGVVVED [GMPPB]	4.49 ± 0.33	4.58 ± 0.23	–	–
SDVICDFPFQAMVQFHRHHGQEGS [GMPPB]	3.12 ± 0.32	3.19 ± 0.28	–	–
EDEDEDKEEEEEDCSEEYLERQLQ [TAF7L]	5.636 ± 0.049	5.76 ± 0.18	–	–
DIAAGEELLYDYGDRSKASIEAHP [KMT5A]	5.09 ± 0.2	5.28 ± 0.19	–	–
FTQNQIEVLENVFRVNCYPGIDIR [HESX1]	2.42 ± 0.4	2.14 ± 0.68	–	–
RAAAQQRRSFLNAHHRSGAQVFPE [GNAS]	3.53 ± 0.12	3.5 ± 0.23	–	–
GMSYLYASWMYQLQHGDQLSICFT [TEX19]	3 ± 0.39	2.92 ± 0.42	–	–
PVAAQFTSEGTTLSGVDLELVGSG [FCHO1]	4.54 ± 0.17	4.57 ± 0.24	–	–
EEVDQMFQFASIDVAGNLDYKALS [MYL5]	4.27 ± 0.3	4.39 ± 0.27	–	–
VIKDKDDSVDAQNICHVWHMNVEA [RNF180]	3.98 ± 0.047	3.66 ± 0.17	–	–
GNPDPEITWFKDFLPVDTSNNNGR [PTPRD]	4.27 ± 0.31	4.76 ± 0.26	–	–
RHQSIFKSNGFFHGISIPEPEDME [CDKL4]	3.58 ± 0.27	3.87 ± 0.15	–	–
LFCAPGSWEWNELDHIMEIILGS [SERTAD3]	–	–	3.56 ± 0.17	2.45 ± 0.4

Source: the supplement of paper PMC10567573
